These results are taken from US11976099B2, “Compositions and methods for treatment of bone associated diseases” (THE NATIONAL INSTITUTE FOR BIOTECHNOLOGY IN THE NEGEV LTD., priority 2016, dated 2024).

Where “and” joins values, the source holds several entries; their conditions need not be identical. Identical values can stand only once.

One assay concerns c-FMS and αvβ3 integrin. In words: YSD binding of M-CSFRGD variants to c-FMS and αvβ3 integrin, alone and simultaneously. Further details: species or system human. How it is done: For expressing the M-CSFM gene and the two M-CSFRGD libraries on the yeast surface, the SDCAA medium was replaced by SGCAA medium (2% galactose, 0.67% yeast nitrogen base, 0.5% bacto casamino acids, 1.47% sodium citrate, 0.429% citric acid monohydrate) and the yeasts were incubated overnight at 30° C. until the culture reached OD600=10.0 (10^8 cells per ml). A number of cells equal to ten times the library size was added to 1 ml of PBS containing 1% bovine serum albumin (PBSA); the suspension was centrifuged, and the supernatant was removed. For binding analysis of M-CSFM and the M-CSFRGD libraries to c-FMS, yeast cells were incubated with mouse anti c-myc antibody, 9E10 (Abcam, Cambridge, MA, USA) in a 1:50 ratio and different concentrations of soluble Fc conjugated human c-FMS (R&D systems, USA) for 1 h at room temperature. […]
To identify the high αvβ3 integrin and c-FMS binders, 25 different clones from sort 4 and 25 different clones from sort 5 were tested for binding to 20 nM of αvβ3 integrin, as described in the flow cytometry sorting section. […] To determine the binding specificity to other RGD binding integrins, namely α4β7, […], α5β1 and αvβ5 (BioLegend, USA), the three chosen M-CSFRGD variants (4.22, 4.24 and 5.6) were analyzed for binding to 250 nM of each integrin. […]

In assay [1] the test system is CTX-I (carboxy-terminal collagen crosslinks). In words: CTX-I serum ELISA in ovariectomized mice (bone resorption). It is filed as in vivo, C57 Rcc mice. Details: CTX-I serum-concentration: unit not given here. The note with it: for CTX-I serum-concentration: 4 days, individual animals, listed as M-CSF 5.6. How it is done:
In order to assess the effect of M-CSF variant on bone resorption, 10 weeks old C57 Rcc mice were ovariectomized resulting in a decrease in estrogen secretion similar to what occurs in osteoporosis. Two weeks post-surgery the mice were treated with M-CSF5.6 variant in three concentrations-0.1 mg/kg, 0.5 mg/kg and 15 mg/kg, in order to test the effect on bone resorption and to find the optimal dosage. For a period of 4 days, 0.1 and 0.5 mg/kg M-CSF5.6 treated mice received subcutaneous injections twice a day, while 15 mg/kg M-CSF5.6 treated mice received a daily subcutaneous injection. Mice were sacrificed 18-24 hours after the final injection. The amounts of type I collagen fragments in the blood were measured using CTX-I (carboxy-terminal collagen crosslinks) ELISA.
Animals were randomly divided into 2 control groups (SHAM, PBS) and 4 treatment groups (0.1, 0.5 and 15 mg/kg M-CSF5.6 and 0.1 mg/kg Alendronate as positive control). Except for the SHAM group, all animals were ovariectomized. *, ^, + represent a Haemolytic-serum sample, an unsuccessful ovariectomy procedure (as determined post mortem) and an outlier, respectively. CTX-I serum-concentration values of mice with unsuccessful ovariectomy were excluded from the analysis.

A further assay has as its system mature osteoclasts. In words: Actin ring formation in mature osteoclasts. Format: cell-based, mouse. The note with it: inhibitors 5 μM added to mature osteoclasts for 24 h; F-actin staining. How it is done:
FIG. 23 are example pictures showing Actin ring formation in mature osteoclasts incubated with M-CSFRGD variants. Murine BMMs were allowed to differentiate into osteoclasts in the presence of M-CSF and RANKL for 72 h. Then, the cells were incubated for additional 24 h without (positive control) or with inhibitors (5 μM) followed by fixation and staining for F-actin and nuclei. Cells were able to form a solid actin ring (white arrowheads), scattered actin ring (white arrows) or amorphous actin distribution (barbed arrowheads). Pictures are representatives of 35 images acquired from five different wells per sample.
For a mature osteoclast to resorb bone properly, it must form unique structure termed “sealing zone”; this structure consists of an actin ring made from a dense actin mesh connected by adhesion complexes called podosomes. The formation of the actin ring involves several stages: at the beginning, podosomes are formed throughout the cell in a scattered manner, then groups of podosomes form small actin structures named belts and upon osteoclast maturation, the belts are moving to the cell periphery, cluster, and form the actin ring. Podosomes contain high levels of αvβ3 integrin which is essential for the formation of a proper actin ring with condensed podosome network. […]

B1: 5.6: bispecific M-CSFRGD variant from sort five; M-CSFM loop replaced by XXXRGDXXX motif; binds c-FMS and αvβ3 integrin (protein)
chain: EEVSEYCSHMIGSGHLQSLQRLIDTYPRGDMCSITFEFVDQEQLKDPVCYLKKAFLLVQDIMEDTMRFRDNTPNAIAIVQLQELSLRLKSCFTKDYEEHDKACVRTFYETPLQLLEKVKNVFNETKNLLDKDWNIFSKNCNNSFAECSSQGHERQSEGS
modifications: left off: small tags and cut ends
For B1, in the assay on c-FMS and αvβ3 integrin, the “relative affinity for c-FMS and αvβ3 integrin” value is “higher affinity for c-FMS than for αvβ3 integrin”. For the same molecule, the “simultaneous binding of c-FMS and αvβ3 integrin” value in the assay with c-FMS and αvβ3 integrin (data not shown) is “could simultaneously bind c-FMS and αvβ3 integrin”. Further, the CTX-I serum-concentration in assay [1] (0.1 mg/kg s.c. twice a day, * haemolytic) was 58.19 and 44.06 and 130.4* and 195.2* and 53.32 and 46.69; in assay [1] (0.5 mg/kg s.c. twice a day, * haemolytic, ^ unsuccessful ovariectomy, + outlier), 53.33 and 209.7+ and 47.65*^ and 64.67 and 70.37* and 83.09*; in assay [1] (15 mg/kg s.c. daily, ^ unsuccessful ovariectomy, + outlier) it was 33.94 and 33.49 and 214.7^+ and 46.82 and 30.85 and 40.68. The “decrease in CTX-I levels compared to the PBS treated animals” value in assay [1] (15 mg/kg) is reported as around 2 fold. For the same molecule, the “effect on CTX-I levels at lower doses” value in assay [1] (0.1 and 0.5 mg/kg, hemolytic samples included) was “ineffective”. Moreover, the actin ring formation entry with mature osteoclasts is “showed the same phenotype as cRGD and M-CSFαvβ3”.
